In the supplement of paper PMC9170038:

Tested on: MS2 coat protein
Test: apparent KD of MS2 coat protein; designed switch direction (-1 OFF switch, 1 ON switch): -1; higher = weaker reporter binding
How it was run: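 The buffer was Tris-HCl pH 7.5 with KCl, MgCl2, BSA, DTT, tRNA and Tween-20. In it, SNAP-549-labelled MS2 coat protein was titrated in doubling steps from 0.7 or 1.5 nM to 3 µM over chip-bound RNA switches transcribed by stalled E. coli RNA polymerase on Illumina chips. Apparent KD is the per-design median over clusters of curve fits to normalised fluorescence.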

[1] = Eterna round: R95, input ligand: microRNA oligo, concentration not stated
[2] = Eterna round: R95, input ligand: FMN 200 uM
[3] = Eterna round: R95, input ligand: none

Sequence	apparent KD of MS2 coat protein [1]	apparent KD of MS2 coat protein (input ligand: FMN 200 uM)	apparent KD of MS2 coat protein (input ligand: none)	other results
AACAUGUCAGGAUAUGUGACAUGGCUCUUCGGAGCAAGAUCACAGAAGGGACAUGAGGAUCACCCAUGUCGAUC [Ex4-3: 28] (puzzle: Exclusion 4)	32.7 nM			
CAGUACUGAGGAUAUACAUGAGGAUCACCCAUGUUCUUCAGCUAGGAUACUAGCAAAGGUAGAAGGCAGUACUG [Mat - Exclusion 3 - Eli Mod - D28] (Eterna round: R97, puzzle: Exclusion 3)		611 nM	30.1 nM	
GAGCUAUGAGGAUAUGCAUAUAUACGGUUUCGUGUGGUACUACAUGAGGAUCACCCAUGUAGAAGGCGUGGCAG [Mat - Exclusion 2 - Mod of JL - D78] (puzzle: Exclusion 2)	16.7 nM			
AAAAGGUAAGGAUAUACAUGCCCAAAACACGUCCUCAGUCCACAUGAGGAUCACCCAUGUAGAAGGUACGAAAA [Ribiesdi] (Eterna round: R97, puzzle: Exclusion 2)		285 nM	93.2 nM	
GUGUAGGUAGGAUAUACAUGAGGAUCACCCAUGUGAAUAAGAUAGAAUAAGAUAAAGUGUAGAAGGACUAGUGU [Excluse me!!! 14 - Jieux - Exclusion 3] (puzzle: Exclusion 3)	38.7 nM			
GUUACUAUUGUGAGGAUAUACUUAUUAAUAAAUAGGUAGAAGGCACAUGAGGAUCACCCAUGUUUUAACUUUUC [lam1] (Eterna round: R97, puzzle: Brourd's mod of Exclusion 4)		96.8 nM	24.9 nM	
AGUACUAACACGGUAGUGUUAGUACAAUAAGCUUGUGAAACAUGAGGAUCACCCAUGUCCUCAUAAGCUCGUCUUAU [salish99_TOv2_r3_057] (puzzle: Sensor v3, turn-off variant 2)	370 nM			apparent KD of MS2 coat protein [2]: 17.6 nM; apparent KD of MS2 coat protein [3]: 15.3 nM
UCUGUUUUGCGAGGAUAUCGACCAUUCCUCUUAACAUGAGGAUCACCCAUGUGCUAAACCUACAACGAGAAGGCGCUCAUACUC [JR_ExcNG2_Sub067] (Eterna round: R96, puzzle: Exclusion NG 2)		60.8 nM	51.9 nM	apparent KD of MS2 coat protein (input ligand: microRNA oligo, concentration not stated): 50 nM
CUCUUGUUAGGAUAUCAAACCGGCGGCGGAGCCACCGGAAGUGAGAAGGGACAUGAGGAUCACCCAUGUAAGAA [Islaariste] (puzzle: Exclusion 4)	60.9 nM			apparent KD of MS2 coat protein [2]: 220 nM; apparent KD of MS2 coat protein [3]: 67.3 nM
UAAUUCAGAGGAUAUGCGCAUAGAUAAGACUUUUUUUUUUAACAUGAGGAUCACCCAUGUAGAAGGCUGUAAUU [Ex2 #54] (Eterna round: R97, puzzle: Exclusion 2)		24 nM	23.1 nM	
GGGAAGAACCAACAAGUAGACAUGAGGAUCACCCAUGUAGACUUCAUGUAGGAAAGGAAAGGAAGAGCUCGUCUUAU [AK-miRNA-r3-12] (Eterna round: R97, puzzle: Sensor, turn-off variant 1)		21.6 nM	28.5 nM	
AUUCCCGGUGUUAGGAUAUCCAACGCCCACGCGAUGGAGAAGGGACAUGAGGAUCACCCAUGUAGAGCUGCAUC [Aredan] (puzzle: Brourd's mod of Exclusion 4)	11.7 nM			
GGUGUACAUGAGGAUCACCCAUGUUAGGAUAUAUCCAAACGCCUAGAGGAGAGGCACGAUAGAAGGAACGUGUA [Eternabot (Original) Solution 33] (Eterna round: R97, puzzle: Exclusion 1)		37.2 nM	41 nM	
